Patent US20030009023A1 (US Dept. of Health and Human Services, published 2003)

B3: bovine Frzb (other)
chain: AACEPVRIPLCKSLPWNMTKMPNHLHHSTQANAILAIEQFEGLLGTHCSPDLLFFLCAMYAPICTIDFQHEPIKPCKSVCERARQGCEPILIKYRHSWPESLACEELPVYDRGVCISPEAIVTADGADFPMDSSNGNCRGASSERCKCKPVRATQKTYFRNNYNYVIRAKVKEIKTKCHDVTAVVEVKEILKASLVNIPRETVNLYTSSGCLCPPLNVNEEYLIMGYEDEERSRLLLVEGSIAEKWKDRLGKKVKRWDMKLRHLGLNTSDSSHSDSTQSQKPGRNSNSRQARN
notes: Full-length bovine Frzb expressed from pcDNA3 (pFrzb) in COS7 cells, or translated in vitro with microsomal membranes, or from injected mRNA; also called Bfrzb; BFrzb

Tests used:
[1] = target: Xwnt-8 (Xenopus) (UniProt P28026); assay: cell-based or functional assay
[2] = target: T1, HA-tagged murine Wnt-1 (mouse, UniProt P04426 28-370); assay: co-immunoprecipitation from lysates of co-transfected COS7 cells
T1 construct: also called pLNCWnt1HA; pLNCW1-HA; not shown: hemagglutinin (HA) tag near the C-terminus
T1 sequence (looked up): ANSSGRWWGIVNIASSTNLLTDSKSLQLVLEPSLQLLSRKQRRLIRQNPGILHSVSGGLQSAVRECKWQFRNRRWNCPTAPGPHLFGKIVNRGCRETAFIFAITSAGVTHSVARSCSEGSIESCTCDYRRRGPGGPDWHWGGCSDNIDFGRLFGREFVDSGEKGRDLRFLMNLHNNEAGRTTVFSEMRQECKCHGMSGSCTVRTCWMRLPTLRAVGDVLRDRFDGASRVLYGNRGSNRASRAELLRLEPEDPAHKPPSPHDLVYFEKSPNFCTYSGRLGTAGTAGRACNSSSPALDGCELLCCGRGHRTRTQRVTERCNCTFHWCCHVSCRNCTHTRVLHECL

[3] = target: B3; assay: co-immunoprecipitation after in vitro cotranslation
[4] = target: T2, Xwnt-8^myc (Xenopus, UniProt P28026 23-358, limits assumed); assay: as above
T2 construct: also called myc-tagged XWnt-8
T2 sequence (looked up): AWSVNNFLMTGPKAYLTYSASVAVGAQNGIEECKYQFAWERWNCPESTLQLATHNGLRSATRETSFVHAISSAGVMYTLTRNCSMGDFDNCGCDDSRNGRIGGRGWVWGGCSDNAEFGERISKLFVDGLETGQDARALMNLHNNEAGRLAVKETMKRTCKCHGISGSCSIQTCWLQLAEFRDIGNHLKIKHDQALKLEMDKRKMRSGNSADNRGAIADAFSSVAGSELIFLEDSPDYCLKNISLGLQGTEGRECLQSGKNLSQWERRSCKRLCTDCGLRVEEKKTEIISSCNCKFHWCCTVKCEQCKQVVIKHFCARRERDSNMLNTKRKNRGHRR

[5] = target: T3, HA-tagged mouse Wnt-7A (mouse, UniProt P24383 32-349, limits assumed); assay: anti-HA immunoprecipitation of co-transfected COS7 lysates, immunoblot with N374-PEP
T3 construct: also called pLNCW7A-HA; not shown: HA tag
T3 sequence (looked up): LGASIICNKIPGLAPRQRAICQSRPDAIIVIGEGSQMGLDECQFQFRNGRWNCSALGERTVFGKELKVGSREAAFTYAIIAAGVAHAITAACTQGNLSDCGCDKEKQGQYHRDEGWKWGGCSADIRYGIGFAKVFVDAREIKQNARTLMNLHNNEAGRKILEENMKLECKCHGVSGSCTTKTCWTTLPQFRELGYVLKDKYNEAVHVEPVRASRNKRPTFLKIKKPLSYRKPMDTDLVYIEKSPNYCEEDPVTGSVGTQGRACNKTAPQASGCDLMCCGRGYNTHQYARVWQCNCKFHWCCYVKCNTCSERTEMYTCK

[6] = target: T4, HA-tagged mouse Wnt-7B (mouse, UniProt P28047 25-349, limits assumed); assay: as above
T4 construct: also called pLNCW7B-HA; not shown: HA tag
T4 sequence (looked up): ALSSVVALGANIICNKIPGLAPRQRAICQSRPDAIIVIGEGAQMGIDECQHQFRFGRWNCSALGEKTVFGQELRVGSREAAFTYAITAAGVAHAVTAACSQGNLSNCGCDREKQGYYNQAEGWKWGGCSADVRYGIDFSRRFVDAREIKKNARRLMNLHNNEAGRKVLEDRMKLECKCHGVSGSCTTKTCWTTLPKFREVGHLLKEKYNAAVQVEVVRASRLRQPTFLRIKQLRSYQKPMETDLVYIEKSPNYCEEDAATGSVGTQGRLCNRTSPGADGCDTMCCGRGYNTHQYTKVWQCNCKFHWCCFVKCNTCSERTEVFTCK

[7] = target: T5, HA-tagged mouse Wnt-4 (mouse, UniProt P22724 23-351, limits assumed); assay: as above
T5 construct: also called pLNCW4-HA; not shown: HA tag
T5 sequence (looked up): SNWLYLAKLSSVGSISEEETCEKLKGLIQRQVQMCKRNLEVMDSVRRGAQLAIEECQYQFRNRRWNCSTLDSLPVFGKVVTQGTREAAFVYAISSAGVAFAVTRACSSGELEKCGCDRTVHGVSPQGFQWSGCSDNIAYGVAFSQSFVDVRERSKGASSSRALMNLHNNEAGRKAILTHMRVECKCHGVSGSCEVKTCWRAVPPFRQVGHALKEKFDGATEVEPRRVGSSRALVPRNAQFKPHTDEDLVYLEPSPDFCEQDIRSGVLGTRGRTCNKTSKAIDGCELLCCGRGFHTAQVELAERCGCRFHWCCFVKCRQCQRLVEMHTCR

[8] = target: T6, HA-tagged mouse Wnt-3A (mouse, UniProt P27467 19-352, limits assumed); assay: as above
T6 construct: also called pLNCW3A-HA; not shown: HA tag

[9] = target: T7, HA-tagged mouse Wnt-2 (mouse, UniProt P21552 26-360, limits assumed); assay: as above
T7 construct: also called pLNCW2-HA; not shown: HA tag
T7 sequence (looked up): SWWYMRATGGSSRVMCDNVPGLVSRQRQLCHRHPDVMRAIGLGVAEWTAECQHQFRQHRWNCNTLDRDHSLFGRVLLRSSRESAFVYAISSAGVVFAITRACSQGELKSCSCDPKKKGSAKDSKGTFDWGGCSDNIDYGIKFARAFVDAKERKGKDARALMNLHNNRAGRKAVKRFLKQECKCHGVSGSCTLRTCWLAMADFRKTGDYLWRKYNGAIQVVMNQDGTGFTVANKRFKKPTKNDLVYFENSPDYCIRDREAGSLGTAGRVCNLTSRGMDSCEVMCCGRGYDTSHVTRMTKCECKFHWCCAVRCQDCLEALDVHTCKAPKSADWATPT

[10] = target: T8, HA-tagged mouse Wnt-5B (mouse, UniProt P22726 18-359, limits assumed); assay: as above
T8 construct: also called pLNCW5B-HA; not shown: HA tag
T8 sequence (looked up): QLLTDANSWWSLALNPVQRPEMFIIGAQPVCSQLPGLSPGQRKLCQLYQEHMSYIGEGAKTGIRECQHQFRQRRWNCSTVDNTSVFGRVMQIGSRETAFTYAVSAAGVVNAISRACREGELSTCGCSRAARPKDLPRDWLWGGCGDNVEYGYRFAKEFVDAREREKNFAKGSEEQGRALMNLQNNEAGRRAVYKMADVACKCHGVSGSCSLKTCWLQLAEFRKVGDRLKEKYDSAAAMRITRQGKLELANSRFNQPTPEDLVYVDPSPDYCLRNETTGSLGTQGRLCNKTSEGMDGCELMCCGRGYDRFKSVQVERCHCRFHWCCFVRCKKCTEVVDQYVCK

[11] = target: T9, HA-tagged mouse Wnt-6 (mouse, UniProt P22727 24-364, limits assumed); assay: as above
T9 construct: also called pLNCW6-HA; not shown: HA tag
T9 sequence (looked up): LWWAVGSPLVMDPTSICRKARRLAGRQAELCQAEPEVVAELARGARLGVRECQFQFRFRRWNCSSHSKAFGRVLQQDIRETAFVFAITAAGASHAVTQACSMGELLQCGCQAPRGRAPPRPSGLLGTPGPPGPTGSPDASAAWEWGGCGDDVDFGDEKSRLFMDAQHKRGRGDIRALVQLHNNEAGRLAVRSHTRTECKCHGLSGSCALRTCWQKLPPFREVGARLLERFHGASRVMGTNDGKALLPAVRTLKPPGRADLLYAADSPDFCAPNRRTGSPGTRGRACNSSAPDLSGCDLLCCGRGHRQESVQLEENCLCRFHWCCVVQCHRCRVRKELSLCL

[12] = target: T1, HA-tagged murine Wnt-1; assay: as above

T6 sequence (P27467 19-352 limits assumed): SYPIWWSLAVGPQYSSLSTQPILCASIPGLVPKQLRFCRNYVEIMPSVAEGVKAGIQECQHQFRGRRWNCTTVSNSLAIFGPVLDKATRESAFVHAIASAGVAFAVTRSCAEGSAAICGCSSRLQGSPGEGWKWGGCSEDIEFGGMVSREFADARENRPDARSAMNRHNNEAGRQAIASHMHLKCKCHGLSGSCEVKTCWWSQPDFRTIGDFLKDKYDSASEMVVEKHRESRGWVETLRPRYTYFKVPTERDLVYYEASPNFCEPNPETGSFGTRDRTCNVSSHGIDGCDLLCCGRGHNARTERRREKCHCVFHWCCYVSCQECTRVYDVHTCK

In the case of Xenopus Frzb, the head defects produced by CSKA-Xwnt-8 plasmid in dorsal blastomeres (64/80 embryos without Xfrzb) (embryos with head defects out of 81) [1] is reported as 0.

B1: Frzb deletion construct delta CRD (other)
chain: AACEPVVCISPEAIVTADGADFPMDSSNGNCRGASSERCKCKPVRATQKTYFRNNYNYVIRAKVKEIKTKCHDVTAVVEVKEILKASLVNIPRETVNLYTSSGCLCPPLNVNEEYLIMGYEDEERSRLLLVEGSIAEKWKDRLGKKVKRWDMKLRHLGLNTSDSSHSDSTQSQKPGRNSNSRQARN
notes: Made by deleting amino acids 39 to 145 of Frzb; also called CRD deletion; removal of the entire frizzled domain
B1: no binding [2].

B2: β-lactamase (enzyme)
chain: HPETLVKVKDAEDQLGARVGYIELDLNSGKILESFRPEERFPMMSTFKVLLCGAVLSRVDAGQEQLGRRIHYSQNDLVEYSPVTEKHLTDGMTVRELCSAAITMSDNTAANLLLTTIGGPKELTAFLHNMGDHVTRLDRWEPELNEAIPNDERDTTMPAAMATTLRKLLTGELLTLASRQQLIDWMEADKVAGPLLRSALPAGWFIADKSGAGERGSRGIIAALGPDGKPSRIVVIYTTGSQATMDERNRQIAEIGASLIKHW
notes: also called β-lactamase control
B2: no binding [3]; no binding [4].

B3: binds [5]; binds [6]; binds [7]. B3: binds [8]; binds [9]; binds [10]. B3: binds [11]; binds [12].
